According to patent publication US6887467B1, “Double mutants of dihydrofolate reductase and methods of using same” (Sloan-Kettering Institute for Cancer Research, priority 1996, dated 2005):
Read-outs that look alike come from different tables or passages of the source.

B1: wild type: wild-type human dihydrofolate reductase, leucine at amino acid 22 and phenylalanine at amino acid 31 (protein, UniProt P00374 1-187, looked up)
Dihydrofolate reductase: MVGSLNCIVAVSQNMGIGKNGDLPWPPLRNEFRYFQRMTTTSSVEGKQNLVIMGKKTWFSIPEKNRPLKGRINLVLSRELKEPPQGAHFLSRSLDDALKLTEQPELANKVDMVWIVGGSSVYKEAMNHPGHLKLFVTRIMQDFESDTFFPEIDLEKYKLLPEYPGVLSDVQEEKGIKYKFEVYEKND

Key:
[1] = tested on: human DHFR (wild type and variants); experiment: Inhibition constants (Ki) of antifolates for DHFR variants from steady state reaction rates; format: biochemical; conditions: for Ki Kcat/km relative: relative to wt = 1, MTX
Description: The first parameter, Ki, is the “inhibition constant” and reflects the level of inhibition by a given compound. Ki, is obtained from steady state reaction rates observed for mixtures of enzyme, cofactor. 7,8-dihydrofolate (the normal substrate) and variable levels of antifolate. The higher the value of Ki, the higher the concentration of antifolate required to inhibit the activity of the enzyme on the normal substrate.
(§1) The parameters Km and kcat can be combined to provide a measure of overall catalytic efficiency which is given by kcat/Km. High levels of catalytic efficiency are preferred.

[2] = tested on: human DHFR (wild type and variants); experiment: Kinetic parameters (Km, kcat) of purified DHFR variants with 7,8-dihydrofolate; format: biochemical
Description: Km or the “Michaelis constant” reflects the ability of an enzyme to convert a given substrate to product. In this case, the substrate is the normal substrate, 7,8-dihydrofolate. Km is determined using a double reciprocal plot of the initial velocity of the reaction as a function of the concentration of the substrate. Higher values of Km reflect a decreased affinity for the normal substrate.
kcat reflects the catalytic turnover of the enzyme. kcat values are obtained by active site titration experiments using MTX or from activity and total protein measurements of purified enzyme species.
as §1
Enzyme expressed by the transformed E. coli was purified using an MTX-affinity column, followed by DEAE-Sephacel column chromatography.

Row | Molecule | Ki Kcat/km relative [1] | kcat [2] | Km ([2]; substrate 7,8-dihydrofolate, read-out: Km (H2folate)) | Ki ([1]; inhibitor aminopterin, read-out: Ki APT) | Ki ([1]; inhibitor methotrexate, read-out: Ki (MTX)) | Ki ([1]; inhibitor piritrexin, read-out: Ki PTX) | Ki ([1]; inhibitor trimetrexate, read-out: Ki TMTX) | Ki Kcat/km ([1]; product of Ki (MTX) and catalytic efficiency)
1 | N[C@@H](Cc1ccc(O)cc1)C(=O)O [22 tyrosine, reference compound] | 104 |  |  |  |  |  |  | 
2 | B1 | 1 | 12.7 s⁻¹ | 0.08 µM | 1.8 pM | 1.2 pM | 132 pM | 13 pM | 0.191 s⁻¹
